Reference: patent US20200407442A1 (WUXI BIOLOGICS IRELAND, published 2020)

T1: full-length human LAG-3 on cells (human, UniProt P18627 23-525)
T1 construct: Expressed on Flp-In-293, CHO or 293F transfectants; also called hPro1.FL; cell surface human LAG-3
T1 sequence: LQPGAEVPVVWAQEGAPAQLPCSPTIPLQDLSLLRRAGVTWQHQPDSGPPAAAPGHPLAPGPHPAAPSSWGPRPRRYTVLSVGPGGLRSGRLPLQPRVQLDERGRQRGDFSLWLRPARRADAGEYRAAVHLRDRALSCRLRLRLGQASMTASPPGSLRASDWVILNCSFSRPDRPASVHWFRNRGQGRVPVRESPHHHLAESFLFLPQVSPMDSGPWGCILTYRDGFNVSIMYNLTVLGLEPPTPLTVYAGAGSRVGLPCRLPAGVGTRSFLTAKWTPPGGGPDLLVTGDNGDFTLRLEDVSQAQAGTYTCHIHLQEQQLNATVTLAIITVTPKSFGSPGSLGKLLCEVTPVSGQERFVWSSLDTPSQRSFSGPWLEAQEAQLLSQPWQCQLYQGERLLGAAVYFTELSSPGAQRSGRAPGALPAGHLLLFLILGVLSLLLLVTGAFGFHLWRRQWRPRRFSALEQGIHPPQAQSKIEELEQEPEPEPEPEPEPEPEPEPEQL

T2: mFc-tagged LAG-3 protein (human, UniProt P18627 30-450)
T2 construct: also called human LAG-3 ECD with mouse Fc tag
T2 sequence: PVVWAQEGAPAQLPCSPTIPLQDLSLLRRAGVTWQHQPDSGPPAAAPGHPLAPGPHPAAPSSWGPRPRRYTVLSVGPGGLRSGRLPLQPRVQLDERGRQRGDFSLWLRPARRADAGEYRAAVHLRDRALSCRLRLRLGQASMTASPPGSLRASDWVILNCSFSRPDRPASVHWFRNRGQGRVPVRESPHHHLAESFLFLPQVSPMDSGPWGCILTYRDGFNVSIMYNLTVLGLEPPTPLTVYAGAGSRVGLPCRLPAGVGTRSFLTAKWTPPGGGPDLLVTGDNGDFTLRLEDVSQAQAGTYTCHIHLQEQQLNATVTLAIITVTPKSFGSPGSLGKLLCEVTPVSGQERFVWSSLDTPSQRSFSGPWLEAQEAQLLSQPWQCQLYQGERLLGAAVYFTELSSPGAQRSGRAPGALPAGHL

T3: human LAG-3 protein (SPR analyte) (human, UniProt P18627 30-450)
T3 sequence: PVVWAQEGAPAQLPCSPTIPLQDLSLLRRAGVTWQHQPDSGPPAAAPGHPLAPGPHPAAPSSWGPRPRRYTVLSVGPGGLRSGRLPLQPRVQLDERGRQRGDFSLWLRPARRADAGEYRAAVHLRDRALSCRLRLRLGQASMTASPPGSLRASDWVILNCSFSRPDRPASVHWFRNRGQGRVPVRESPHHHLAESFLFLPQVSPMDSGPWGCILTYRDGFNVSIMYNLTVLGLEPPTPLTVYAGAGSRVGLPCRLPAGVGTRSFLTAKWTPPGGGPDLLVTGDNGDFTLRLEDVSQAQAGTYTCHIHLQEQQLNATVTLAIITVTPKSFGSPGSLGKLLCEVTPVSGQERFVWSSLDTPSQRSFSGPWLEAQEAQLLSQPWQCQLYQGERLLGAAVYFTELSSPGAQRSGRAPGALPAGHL


How the values were obtained:
[1] = molecular target: T1, full-length human LAG-3 on cells; experiment: FACS on human LAG-3 transfectant cells after incubation of the antibody in human serum at 37 C, PE-labeled goat anti-human IgG, MFI
Protocol: The lead Abs were incubated in freshly isolated human serum (serum content>95%) at 37° C. On indicated time points, an aliquot of serum treated sample was removed from the incubator and snap frozen in liquid N₂, and then stored at −80° C. until ready for test. The samples were quickly thawed immediately prior to the stability test. Human LAG-3 transfectant cells were incubated with various concentrations of lead antibodies at 4° C. for 1 hour. PE-labeled goat anti-human IgG was used to detect the binding of lead antibodies onto the cells. MFI of the cells was measured by a flow cytometer (BD FACSCanto II) and analyzed by FlowJo.

mFc-tagged LAG-3 protein = molecular target: T2, mFc-tagged LAG-3 protein; experiment: ELISA competition: blocks mFc-tagged LAG-3 binding to coated LSECtin
Protocol: 96-well plates were coated with human LSECtin or Galectin-3 at 0.5 μg/mL overnight at 4° C., respectively. Antibodies were serially diluted in 1% BSA-PBS and mixed with mFc-tagged LAG-3 protein. After blocking and washing, the mixture was transferred to the plates and incubated at room temperature for 1 h. The plates were then washed and subsequently incubated with corresponding secondary antibody for 60 min. After washing, TMB substrate was added and the color reaction was stopped by 2M HCl. The absorbance at 450 nm was read using a microplate reader.

[2] = molecular target: T1, full-length human LAG-3 on cells; experiment: FACS on human LAG-3 transfectant cells
Protocol: Various concentrations of testing antibodies, positive and negative controls were added to human LAG-3 transfectant cells, and then the binding of antibodies onto the surface of the cells was detected by corresponding PE-labeled secondary antibodies.

[3] = molecular target: T1, full-length human LAG-3 on cells; experiment: cell-based or functional assay
[4] = molecular target: T3, human LAG-3 protein (SPR analyte); experiment: SPR Biacore 8K, antibody captured by anti-human Fc, LAG-3 as analyte
Protocol: Antibodies were characterized for affinity and binding kinetics to human LAG-3 by SPR assay using Biacore 8K. Goat anti-human Fc was pre-immobilized to a sensor chip (CMS), and anti-LAG-3 antibodies were captured when injected to the chip. Various concentrations of human LAG-3 protein and running buffer were flowed through the sensor chip at a flow rate of 30 μL/min for an association phase of 300 s, followed by 3600 s dissociation. The association and dissociation curve was fit by 1:1 Langmuir binding model using Biacore 8K Evaluation Software.

| Binder | EC50 (read off the curve) [1] [nM] | EC50 (mFc-tagged LAG-3 protein) [nM] | EC50 [2] [nM] | EC50, IL-2 luciferase reporter gene assay (Jurkat cells expressing human LAG-3 with Raji cells and SEE) [3] [nM] | Kd [4] [nM] | koff [4] [s⁻¹] | kon [4] [M⁻¹ s⁻¹] |
| --- | --- | --- | --- | --- | --- | --- | --- |
| 1.53.3-uAb-IgG4k (antibody, V domains shown, Fully human antibody from OMT rats; IgG4 kappa by its name) VH: QVQLQQWGAGLLKPSETLSLTCGVYGGSFSGYYWSWIRQPPGMGLEWIGEINHRGNTNYNPSLKSRVTISEDTSKNQFSLRLSSVTAADTAVYFCTRGEDYSDYDYYGDFWGQGTLVTVSS VL: EIVLTQSPATLSLSQGERATLSCRASQSISSYLAWYQQKPGQAPRLLIYAASNRATGIPARFSGSGSGTDFTLTISSLEPEDFAIYYCQQRSNWPLTFGGGTKVEIK | ~3 | 0.71 | 0.43 | 1.07 | 0.0505 | 3.33e-05 | 660000 |
| 3.40.19-uAb-IgG4L (antibody, V domains shown, Fully human antibody from OMT rats; IgG4 lambda by its name; also called 3.40.19-uAb-hIgG4L) VH: QLQLQESGPGLVKPSETLSLTCTVSGDSISSTSYYWGWIRQPPGKGLEWIGSFYYSGSTYYNPSLKSRVTISVDTSKNQFSLKLNSVTAADTAVYYCARMQLWSYDVDVWGQGTTVTVSS VL: QSALTQPASVSGSPGQSITISCTGTSSDVGGYDYVAWYQQHPGKVPKLMIYDVSERPSGVSNRFSGSKSGNTASLTISGLQAEDEADYYCSSYTSTTTLVVFGGGTKLSVL | ~0.8 | 0.51 | 0.13 | 0.21 | 0.0106 | 1.11e-05 | 1.05e+06 |
